Measured values reported in PMC7871196 (Cell reports, 2021).
Where no end group is shown, it is not given here. The star is where a group is joined. Biotin = O=C1N[C@H]2[C@H](CS[C@H]2CCCCC(=O)*)N1

Key:
[1] = target: 6xHis-tagged WDR5 (24-334) (human, UniProt P61964 24-334); assay: AlphaScreen or HTRF
[2] = target: recombinant 6xHis-SUMO-WDR5 (22-334) (human, UniProt P61964 22-334); assay: pull-down

Row | binding result [1] | binding result [2] | Binder
1 | binds | – | Ac-ARTTSQLYDAVPIQS-NH2 [Peptide acetyl PDPK1 WT 15-mer: Acetyl-ARTTSQLYDAVPIQS-amidated]
2 | – | binds | H-ARTTSQLYDAVPIQSSGGYK(Biotin) [Peptide PDPK1 WT: NH2-ARTTSQLYDAVPIQSS-GGY-K(biotin)]
3 | binds | – | Ac-ARTTSQLYDA-NH2 [Peptide acetyl PDPK1 WT 10-mer: Acetyl - ARTTSQLYDA-amidated]
